This is an account of results in PMC9482650, “Quantitative fragmentomics allow affinity mapping of interactomes” (Nature Communications, 2022).

The target of one experiment is DLG1_1, Q12959. The experiment in a line: holdup assay. On the set-up: key: below the threshold = too weak to quantify, mostly under pKd 3.1 to 4. The following applies: modified: phospho on T at position -2 from the C-terminal residue.
As a reminder, the pKd is −log10 of the Kd, conventionally taken in molar units. For the molecule SRSRRRETAL [HPV33-E6_-2P, P06427], the pKd result was “below the threshold”.

The experiment is the same for the next values; noted with them: plain residues with an end cap or a label only (N-terminal biotin on a linker: ado-ado).
In the case of QQGLLPHSSC [TYRO3, Q06418], the pKd entry was “below the threshold”.
For TKDKVQETQI [LRRC4, Q9HBW1], the pKd amounted to 4.42.
On the same count and under the same terms, to PKSNSSKEYV [CLDN7, O95471] belongs “below the threshold”; to NSTHNLKDYV [CLDN20, P56880], “below the threshold”.
On to PALKNGQYWV [CSPG4, Q6UVK1], for which the pKd result is given as “below the threshold”.
The same measure, in the same setting: to TKEIPNCTSV [SORCS3, Q9UPU3] belongs 4.22; to GVHSNDHSVV [LPAR1, Q92633], 3.74.
The same measure, in the same setting: to VYEVPVETKF [SLC26A3, P40879] belongs “below the threshold”; to HLSTRQGTCV [ATRNL1, Q5VV63], 4.18; to PLATCDETSI [SEMA4F, O95754], 3.59.
Regarding FLVTEFNVML [DFNB31, Q9P202], the pKd entry is given as “below the threshold”.
Same read-out and setting: to MQILSKPEFI [NPSR1, Q6W5P4] belongs “below the threshold”; to PEKVSNTTVV [IGSF5, Q9NSI5], 4.25.
On the same count and under the same terms, to QLKSGRDSTV [TMEM178A, Q8NBL3] belongs 4.11; to TNSKQGETTV [FZD1, Q9UP38], 4.61.
In the case of MLPANYVEAI [NEB, P20929], the pKd result was “below the threshold”.
Take EPAKETTTNV [SLC2A3, P11169]: the pKd was 3.94.
On the same count and under the same terms, to KKTPVSRSHL [SLC22A3, O75751] belongs “below the threshold”.
Same read-out and setting: to KEKASTETEC [TRPM1, Q7Z4N2] belongs 3.96; to LPPPESESKV [KCNJ9, Q92806], “below the threshold”; to SKQFDKNAYV [CLDN10, P78369], “below the threshold”.
Same read-out and setting: to SQPLLVHDDV [KIT, P10721] belongs “below the threshold”.
With IKLETKKTKL [SLC15A2, Q16348], the negative-log Kd (pKd) entry is on record as “below the threshold”.
Same read-out and setting: to QKASRNESTF [POLR1D, P0DPB6] belongs “below the threshold”; to DYSNLRETDI [ADRA1D, P25100], 4.1.
As for SSSVNVSSNL [CXCR1, P25024], the pKd result is given as “below the threshold”.
Regarding ADEMICITTL [CACNA1D, Q01668], the pKd came out at 3.91.
Consider EAVTVESTSL [SLC22A11, Q9NSA0], for which the pKd result is recorded as “below the threshold”.
Still for that read-out and setting: to AHGSTRDQSI [KCNB1, Q14721] belongs “below the threshold”.
Same read-out and setting: to GTMFLRETSL [GUCY1A2, P33402] belongs 4.23; to WAKEKQHTRL [SLC17A1, Q14916], 3.64; to STYCDYTIEI [FAM71C, Q8NEG0], “below the threshold”.
On the same count and under the same terms, to DFKHTKSFII [JAM2, P57087] belongs “below the threshold”; to LVEEEEPMNL [HDAC7, Q8WUI4], “below the threshold”; to KLQNPNQSVV [TYRP1, P17643], 3.83.
THREVKFTSL [CD46, P15529]: the pKd entry is on record as “below the threshold”.
PGKKPEDSRV [SLCO2B1, O94956] showed a pKd of 3.62.
Still for that read-out and setting: to DLLGGGSDSI [TNRC6B, Q9UPQ9] belongs “below the threshold”.
Regarding PAALPESTHM [SLC9A3, P48764], the pKd result is on record as “below the threshold”.
The same measure, in the same setting: to QKNKDREYYV [NRXN3, Q9HDB5] belongs “below the threshold”.
The same measure, in the same setting: to KAEEKPPSKV [SCN4B, Q8IWT1] belongs “below the threshold”; to PLPPEEESWV [GAS2L2, Q8NHY3], 4.25; to EFKQTSSFLV [JAM1, Q9Y624], “below the threshold”.
Still for that read-out and setting: to RSPVATATSC [DUSP5, Q16690] belongs “below the threshold”; to SGDGKTSVWI [GJC1, P36383], “below the threshold”.
On to NNMAFETTHF [SLC5A12, Q1EHB4], for which the pKd entry is given as “below the threshold”.
For the molecule SAGADSETHC [SLCO1B1, Q9Y6L6], the pKd result is “below the threshold”.
On the same count and under the same terms, to VCMGDHWFDV [PRKN, O60260] belongs “below the threshold”.
Same read-out and setting: to QRYPGNQTTC [CCL24, O00175] belongs 3.71; to KSRPENGTVC [TMEM178B, H3BS89], 3.71; to DSEEELPTRL [GRK6, P43250], “below the threshold”.
The same measure, in the same setting: to IQISELETNV [SLC1A7, O00341] belongs 4.34; to LLQEEWETVM [PTH1R, Q03431], “below the threshold”; to FVFESRKEIL [TBPL1, P62380], “below the threshold”.
In the case of GNDPDRGTSI [GRID2, O43424], the pKd result is “below the threshold”.
The same measure, in the same setting: to NISARRFTLC [FAM167B, Q9BTA0] belongs 4.31.
Still for that read-out and setting: to KPDKQEEFYA [SDC3, O75056] belongs “below the threshold”; to NTALVESEDL [PALLS, Q8WX93;Q8WX93-1], “below the threshold”; to HYPASPDSWV [CTNND2, Q9UQB3], 4.07.
The same measure, in the same setting: to RDYTQSSSSL [GRM5, P41594] belongs “below the threshold”.
As for YAEKRMLTEV [KCNA6, P17658], the pKd is 3.91.
Regarding PSDSVGKDVF [EGLN1, Q9GZT9], the pKd entry was “below the threshold”.
For the molecule KIEDVEITLV [FCHSD2, O94868], the pKd was found to be 3.79.
On the same count and under the same terms, to GQNMTVSVVI [PRLHR, P49683] belongs “below the threshold”; to HDDYFYHDEL [RCN2, Q14257], “below the threshold”.
